# Assay results as given in patent US20080032931A1.
# Biological target: HV62, synthetic peptide corresponding to residues 33 to 94 of human VAMP-2 (human) (UniProt P63027)
substance,measurement,value
"enterokinase-nicked recombinant single-chain TeNT, wild type L chain (enzyme)",Initial rate of cleavage of HV62 (nmol · min^-1mg^-1),22.7
